Experimental data from US20200131496A1 (REGENTS OF THE UNIVERSITY OF MINNESOTA, published 2020).

Columns and labels:
[1] = biological target: the molecule itself; assay: ion exchange and size-exclusion chromatography; self-association, RNA-mediated
[2] = biological target: the molecule itself; assay: size-exclusion chromatography; self-association, RNA-mediated
[3] = biological target: the molecule itself; assay: size-exclusion chromatography (self-association)

B1: His-tagged mCherry(1-232)-3×Ala linker-A3H-HapII(1-183), wild-type (enzyme)
chain: AAAMALLTAETFRLQFNNKRRLRRPYYPRKALLCYQLTPQNGSTPTRGYFENKKKCHAEICFINEIKSMGLDETQCYQVTCYLTWSPCSSCAWELVDFIKAHDHLNLRIFASRLYYHWCKPQQDGLRLLCGSQVPVEVMGFPEFADCWENFVDHEKPLSFNPYKMLEELDKNSRAIKRRLDRIKQS
notes: range 1-232; Purified from E. coli with RNase A treatment; also called wild-type mCherry-A3H; mCherry-A3Hwt; not shown: N-terminal His tag from the pRSFDuet-1 vector and engineered HRV 3C protease site upstream of mCherry; mCherry residues 1-232, amplified from pRSETB-mCherry (Shaner et al. 2004)
[1]
  binding result: binds

B2: mCherry-A3H-K52E (enzyme)
chain: AAAMALLTAETFRLQFNNKRRLRRPYYPRKALLCYQLTPQNGSTPTRGYFENKKECHAEICFINEIKSMGLDETQCYQVTCYLTWSPCSSCAWELVDFIKAHDHLNLRIFASRLYYHWCKPQQDGLRLLCGSQVPVEVMGFPEFADCWENFVDHEKPLSFNPYKMLEELDKNSRAIKRRLDRIKQS
notes: range 1-232; His tag present in size-exclusion chromatography; Crystal holds two A3H monomers bridged by duplex RNA; also called mCherry-K52E; pdb 6BOB; not shown: N-terminal His tag from the pRSFDuet-1 vector and HRV 3C protease site; tag removed with 3C proteas; mCherry residues 1-232, amplified from pRSETB-mCherry
[2]
  binding result: binds

B3: mCherry-A3H-E56A (enzyme)
chain: AAAMALLTAETFRLQFNNKRRLRRPYYPRKALLCYQLTPQNGSTPTRGYFENKKKCHAAICFINEIKSMGLDETQCYQVTCYLTWSPCSSCAWELVDFIKAHDHLNLRIFASRLYYHWCKPQQDGLRLLCGSQVPVEVMGFPEFADCWENFVDHEKPLSFNPYKMLEELDKNSRAIKRRLDRIKQS
notes: range 1-232; Catalytic mutant; also called E56A catalytic mutant; not shown: N-terminal His tag from the pRSFDuet-1 vector and HRV 3C protease site; mCherry residues 1-232, amplified from pRSETB-mCherry
[2]
  binding result: binds

B4: mCherry-A3H-E56A-K52E (enzyme)
chain: AAAMALLTAETFRLQFNNKRRLRRPYYPRKALLCYQLTPQNGSTPTRGYFENKKECHAAICFINEIKSMGLDETQCYQVTCYLTWSPCSSCAWELVDFIKAHDHLNLRIFASRLYYHWCKPQQDGLRLLCGSQVPVEVMGFPEFADCWENFVDHEKPLSFNPYKMLEELDKNSRAIKRRLDRIKQS
notes: range 1-232; Used in size-exclusion chromatography and in the second crystal structure (6BBO); also called mCherry-A3H-K52E-E56A; A3H-K52E-E56A; not shown: N-terminal His tag from the pRSFDuet-1 vector and HRV 3C protease site; crystallized by similar met; mCherry residues 1-232, amplified from pRSETB-mCherry
[2]
  binding result: binds

B5: mCherry-A3H-E56A-W115A-R175/6E (enzyme)
chain: AAAMALLTAETFRLQFNNKRRLRRPYYPRKALLCYQLTPQNGSTPTRGYFENKKKCHAAICFINEIKSMGLDETQCYQVTCYLTWSPCSSCAWELVDFIKAHDHLNLRIFASRLYYHACKPQQDGLRLLCGSQVPVEVMGFPEFADCWENFVDHEKPLSFNPYKMLEELDKNSRAIKEELDRIKQS
notes: range 1-232; E56A added to prevent E. coli toxicity; preparation lacks RNA; also called W115A/R175/6E with E56A; not shown: N-terminal His tag from the pRSFDuet-1 vector and HRV 3C protease site; mCherry residues 1-232, amplified from pRSETB-mCherry
[3]
  binding result: no binding
